# According to the supplement of paper PMC12636428:
# System: Saccharomyces cerevisiae
# Assay: transcriptional activation domain activity (GFP:mCherry ratio, weighted mean of sorted bins, harmonized to initial dataset scale) (arbitrary fluorescence ratio units); higher = stronger transcriptional activation
# Settings: beta-estradiol 1 µM; induction time 4 h
# How it was run: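 After a 1:5 dilution into SC with 1 uM beta-estradiol and 4 hours at 30 °C, yeast diploids carrying a GFP reporter and URA3-integrated barcoded tiles were sorted into 8 bins by GFP:mCherry ratio. The tiles were fused to an estradiol-inducible synthetic transcription factor. Barcodes were sequenced, tiles below 50 reads were discarded, and activation activity was taken as the read-weighted mean of bin median fluorescence, averaged across barcodes and linearly mapped onto the initial dataset scale.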
row,Sequence,transcriptional activation domain activity
1,LESTHSLLALLNFIAFLCDGRFRTIADRLLNVRLIPSRRLVKRDVSYEFMNRQ,46300
2,MFTLPSYSLFLSVHSFLIYPLPSCSFFFRISSPSIFTLSSCLSFPPVCPSLLF,71700
3,RDKKKARAKGGAGAAGGEKKAEGAAAGDAAAAADGEDEEREGKRRKIARAAEG,42200
4,KKRNAKRPKVESEGEDELADAKKEADDDEDESPKKVSKASSSPEAKVKQSSVS,26200
5,GHGTHCSGTVAGKKYGVAKKASVYAVKVLRSNGSGTMSDVVKGVEYAAESHIK,7670
6,EAAVTSDDEAGPAKKAKRGSVFEKFGGKFKSHKAAEKEPEAKEEAKEEEAKPA,14000
7,MLRLLAMLAKYVAFLLVLLNIRSFPLVWHFRLFRAFIQLGLSLQWHKLTHFYL,60600
8,AAEPAPEPVVEKAPAPKKRAGRQPKAETVVEDAPAPKKRGRGARKSEPAAVAE,21000
9,LGLDSGYLWSGILYNVSVTVSLYSLGMFWVCMSKDLQPFRPVPKFLCIKLIIF,62400
10,GSYCISLVNVLVAFGVVLLHASTSGLWHWNPPFRAPNSVVFIYLLSNIFLITV,55000
11,QQAGRTMSEGKKKRNTGKEEGEEGDEERKRKRRAEKKRKQRKRRMSKSTGEEE,31700
12,GEKEASGENTSNGTTATTVKPSSSSDEEKAAKKENKEAATTTNNGIKNSATAS,30300
13,MVSILLFFLSSAFLLTYPYPLLNLALYLLLMFIFSTLYSLTYLLLGFFFFFLA,58600
14,VIITLICRYEMHSTRLRLRGMSILSFLVNYTGRSMCNIKTTGFLDMIFALRQV,47100
15,MLQLWWLCVVFCVICFLCEWFRLGVVPPFLAATTLLQLFYFFYLLTFFCRVCA,50700
16,MRSMKRTFFFFFLVFDLRYYSVLYYILYLYPFPFFLFLFIFYFPLFLFLSTAS,54500
17,DMDEEEGGAPAKPVGACARCKNLKVKCEFKTETDPCKRCFNGRHDCVTPGRKK,28500
18,ARQGVGMMQSNVVFFFFFSFSFLFLFFFFSFSFLFLFFFPFSIIPTCSSLAVF,44800
19,LWSHSILILACLIPYLVLRCSTYYCYQAISYIDSNDLAWSNVSIRFDVAMLVV,69200
20,MYCVSFSHFYPPPLSFFHYGFDIFLFIFLIFFFCCPFLFAQVVVGYAICWYHT,51300
21,NIIALFLVTNQLTTCSVLPLCMGLFKVFDGFVSEGAVLFGSIFAFFSVLVHGY,61300
22,RDGMRQGTHSTKGRADVRGSTRKAAPQKGRGRARMGSLRAPHIRGGGIAFGPK,24000
23,ETCGRCRGQGVVIQKAQLAPGIFQQMQMQCDQCGGQGTQIKHRCKVCGGARVV,52100
24,MRDGKQGMREKKRKEEGESKSEKKNGKGGRMGKRGGKGKGRKREEQRRVGIEK,28100
25,GGADTKQGAKIACLECRTAKIKCSAPTDGVVPCRRCVRHGRECIFEKHRRGRK,42200

row,Sequence,transcriptional activation domain activity
1,PFFSLDNIMATFDTSTGKLRIWGIRAKPRFVWFCSKEHLLPCMNVKMIRYNSI,64600
2,MGASLVVFLLFFHLLFKNGLDLLIFPFSFFYSCTIFLSFLSFLYFSFCTHVFF,59800
3,MSSWDGTQGSSSNGQVRKRRRIALACDSCRARKSRCDGRRPQCSSCAGQGTKC,43400
4,RWGLGRWWVPFQLFVIFWDLDNWPVFGLRPWVFEFMEGPLEYVLSFLVLFTAK,67500
5,MHDTWFPFLAIVLLFYPTILGPGTFSIYFPHSALPPYMSLHLYVHARFLLLLL,65800
6,LLESLGHDDSLEFFFVSGMLRYVRFGFWRRIIGYQFRNLRTQITRSIYYDWYR,45500
7,KEVAAAEVAPADTAAAEAKPSKKEKKEKEKKPAEGPEGGKKKEKAAGGGGKAA,24500
8,FFLCTFTFFSFCLHLFLFLCVYRLYPTFCSVYPFFPFPILLLFIWLFMWFFIS,71800
9,WAPLNVGLERRLQTFVVLCHTLTIPIFLTLFFFLCAIPLFWPLLIPYLIYILL,34700
10,LILGLVHFLYVFFVQIFSHNFTLIPLALDCNFTWEYSVTFVWIGLHTLVAFPI,54500
11,MYDACLCGRLGFFYLLLVFFLSSVFHSHLFFLPFFGLFYLLRYFFFNFSTFVA,52700
12,RKKREREAEKAEAKRKEERDARRREREKREEEREREREKEREERRRARERDRE,33900
13,RVHPTCLKEFGTADFICGQCNSIYRSGRFLRIARCICLMCHLLSLASTVGLIF,57300
14,TGQGGLEEVKGKLDETKASFAYVRITYANDKESQREKFILIIFIGAEVKVMRK,37500
15,GLCLLYISGLVCATIVCYIEFTMHQSALLNATRLTPFMIAALCLTLFLNIIAT,57200
16,MCMYFFTFFFFTFLFFFTFFVFFFFVSMEYLPTLLALIYIYYMSLPTSAQCSN,35900
17,VSPQIYYGSRLLGSGGLGLYFLRLPSLPCRTVVEILNTFLFFVMISYLQILLY,46400
18,MPSAATRPCVQCAAAASRYNCPQCRASTCSAPCSKAHKLRAHGSDAAAGPSSA,47500
19,PARGNKDVFFIMFHPSEEFLFNILSLWLRACNPNCRIFHSHEAGSWKQYQKET,45000
20,VRDMPQADPGADRAFDASLESSMRKLLDGLAGTSWPAKTSVWVSKLRIACNHV,61200
21,PGLILVYSHLNLLLRNHADLEMIYIIGPGHGAPAALAALWLEGSLERFYPGEY,31000
22,MEWHLLGSCLAGLVWGVFYIFFFFAACLIGFFPYHYHYLLLLLVLLTTNILFV,49500
23,PEQSSSNAVSDAADQLANVKLEDGTNAAASSAPRTRKPRARKPKRKAAAANAS,12100
24,PLFSILFSLSSFLSLPCPAHGCGPVGSWWSCLFLLFFFLSLLVMLSLLWCFGF,41000
25,MVLISFKSISPITSPILPTYHHHHHSFHHSIHHLLLIYYKLILLFLFFLIFYL,46800

row,Sequence,transcriptional activation domain activity
1,MASSTPRVRSLYRRLLRELPTHPSATPNTTTAASRTTPSKYRSTAHQKLSAPS,31700
2,ILLAAHQILFIFCCWLFTITVCIPLSVIYYLFAILRLIKHYLLHRRPLIAYFL,56900
3,KRHAKRRRDKRKQKEKKNSKRDESSSASDSDRRSQSSSRRSRSSSAGSKRSTR,17400
4,MSNVQTELPFFPSCFVFFRGSFSFFCLVLFPLMAFIIELSILSFRCLFLLFLL,61300
5,PYLSRLGEKNILADLMEFYRCKESWSLQSGLVFIRRIILQQVPIDVRILCAFL,35500
6,LGYQIVLLLPWTLFCYCWTLCVVIFSLVAMIIPPLGYVCTIFSVTSWRALARV,69800
7,GPWFLGAFIPSIPQYGLFYPYGIYFPDTKEWIPILDTFYIALWEHTFFIFPLL,51600
8,MTVDTLSYTLFPFYSLLSHFLLLLAEIVLCLKYCLLLTLFSILLFLLVFLFLA,32800
9,FVLLLFTCVHVFVVYLVVIAFFTVNICLLWTIALSFMLWYIFFCNLSCSTWPL,54300
10,KVKAEGEASDGGAPAPDAEGGAADDSAAGKKAARVRKPKAPRAPRPAGEDPVG,34200
11,SNHNNDNDNSNNGDGNNNNTISELVCFDESIADLYPVEIDSPYLITLAYLDKL,71900
12,PVALLSLCFNLCFQTCMHIVSLDLHYHFPNLSLGRSLNILRAFSFFVMIFFIS,88100
13,ERKRKREMAGEDDGRAEAKKVKKEKKEGEKEREKKGKKERKGKKEKEKRKKDM,16800
14,MLPQFQEGNCEDLWNVLVWCTIPIPFDDCEAYPCDYQQNPYPNHINFWFYLFW,55600
15,RCWFILLYVMPNIAGTFGLRYVPLQNHVARLWCYYLTGPYNASFVLTLSLVIA,37400
16,IPENELLDEDTMNFISSLKNDLSNISNSLPFEYPHEIAEAIRSDFSNEDIYDN,98200
17,MIITLSRLFFFFFFFPVRFLAFLNHFFLFFFFFWLRWGLSVCFFILSWPGEKS,46400
18,WPWTFWPWTFWIFWTFWTFGLFGLFGLFGLGLFGLFGLFGPLDFLDFLDLWTF,42000
19,MYLFFFFFLDWFFFVVIITIICILWIWAWDFWACLLGIGIGFACLFYSGWVLF,47800
20,STDALLARLVGHLHINPVSQKLVVAFDKIATCLQEVRACIVQRILPFAQRYKQ,62400
21,LYLLVEILLLATYAVNYNVQYIVLETVTPIAVSSCLVPHTRFLFRLILFIQGL,63200
22,LTHGRERSLIWKAKSSLNKWMFLVLRYFALLDLMFTVAVDTNFHVKYNTPFCI,72400
23,MPIGPIIMLYPMRKHHSILPCKIQRLLEYLWSFLLIQKDWYRYEQTNKYSIMA,40100
24,KADDEKPKKAARGAKAKKEEDEDEEADEEQEEPKKPARKPRAKAEPKKAPAKS,23100
